Biological target: T1, P-TEFb (CycT1) (Homo sapiens, UniProt O60563)
T1 construct: endogenous in cells; host or cells: 293T
Assay: Co-immunoprecipitation of CycT1 from 293T cell lysates
Format: binding
Excerpt: We next investigated the mechanisms by which HT1 can prevent HIV gene expression.

T1 sequence (O60563 whole entry): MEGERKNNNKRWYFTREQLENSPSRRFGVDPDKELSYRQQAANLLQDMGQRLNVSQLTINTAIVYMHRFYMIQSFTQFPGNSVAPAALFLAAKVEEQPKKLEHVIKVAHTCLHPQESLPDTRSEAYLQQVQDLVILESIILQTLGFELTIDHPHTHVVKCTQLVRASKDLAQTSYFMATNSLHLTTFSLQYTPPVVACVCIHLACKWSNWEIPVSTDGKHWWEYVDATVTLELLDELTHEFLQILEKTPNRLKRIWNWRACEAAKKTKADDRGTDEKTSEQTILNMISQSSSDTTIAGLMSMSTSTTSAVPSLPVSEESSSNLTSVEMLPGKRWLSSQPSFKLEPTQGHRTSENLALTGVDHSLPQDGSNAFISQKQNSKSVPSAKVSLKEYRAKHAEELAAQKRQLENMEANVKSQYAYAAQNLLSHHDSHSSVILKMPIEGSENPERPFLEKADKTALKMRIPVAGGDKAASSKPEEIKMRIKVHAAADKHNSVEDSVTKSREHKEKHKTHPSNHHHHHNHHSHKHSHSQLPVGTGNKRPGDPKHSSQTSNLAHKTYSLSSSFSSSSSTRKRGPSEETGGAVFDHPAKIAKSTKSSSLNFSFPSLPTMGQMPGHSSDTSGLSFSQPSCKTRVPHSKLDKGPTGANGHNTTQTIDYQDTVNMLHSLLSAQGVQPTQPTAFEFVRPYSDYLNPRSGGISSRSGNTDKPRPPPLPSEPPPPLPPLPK
T1 sequence (P50750 whole entry partner): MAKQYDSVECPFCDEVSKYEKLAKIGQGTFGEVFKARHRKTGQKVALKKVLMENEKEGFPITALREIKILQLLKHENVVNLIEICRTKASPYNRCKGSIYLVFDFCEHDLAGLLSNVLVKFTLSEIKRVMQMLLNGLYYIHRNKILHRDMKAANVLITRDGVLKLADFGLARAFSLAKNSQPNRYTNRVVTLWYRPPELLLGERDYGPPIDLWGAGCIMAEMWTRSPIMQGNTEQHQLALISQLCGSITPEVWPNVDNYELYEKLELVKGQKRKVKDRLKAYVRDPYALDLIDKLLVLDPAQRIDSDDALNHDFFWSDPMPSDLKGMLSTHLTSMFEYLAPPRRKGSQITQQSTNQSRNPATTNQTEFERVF

B1: HT1 (protein)
chain: KKKHRRRPSKKKRHWKPYYKLTWEEKKKFDEKQSLRASRIRAEMFAKGQPVAPYNTTQFLMDDHDQEEPDLVDMEPVDPYLEPWKHPGSQPRTACNNCYCKKCCFHCYACFTRKGLGISYG
modifications: left off: small tags and cut ends
amounts of CycT1 co-immunoprecipitating with f:Tat (fixed amount of f:Tat, increasing amounts of m:HT1): decreased | binding to CycT1 by co-immunoprecipitation (transient expression in 293T cells, anti-Myc or anti-Flag Abs): bound to CycT1
